From patent US20090188009A1, “HEAT SHOCK RNA FROM VARIOUS SPECIES AND ITS USE IN ACTIVATION OF HEAT SHOCK TRANSCRIPTION FACTOR, IN TREATMENT OF VARIOUS DISEASES IN ANIMALS AND IN GENERATION OF STRESS-RESISTANT PLANTS” (New York University, published 2009) come the findings set out here.

Series [1] addresses purified recombinant mouse HSF1 (heat shock transcription factor 1), released from GST-HSF1 by thrombin cleavage (mouse) (UniProt P38532). Kind of series: cell-based or functional assay.
The target in series [2] is HSF1 (Mus musculus, UniProt P38532 P38532:1-525). Description: EMSA; trimeric HSF1 activated by eEF1A plus HSR1 (BHK, HeLa or T3 sense transcript); about 5% of HSF1 activated; 1.5 mM MgCl2, 2 mM DTT. The settings on record: tags: expressed as N-terminal GST fusion from pGex-2T in E. coli, thrombin cleaved; chain copies: 3; label: 32P end. How it is done: cDNAs of HSR1 were cloned from both HeLa and BHK cells (see Methods), and the coding strand was identified in a functional assay (FIG. 5A). As shown in the upper panel of FIG. 5A, the sense (T3) and antisense (T7) HSR1s were transcribed in vitro by T3 and T7 RNA polymerases, respectively, from PCR fragments carrying T3 or T7 promoters on each side of HSR1. The resulting synthetic RNAs were tested in the minimal HSF1 activating system (FIG. 5A, lower panel). For the reconstitution experiment shown in FIG. 5A, recombinant mouse HSF1 was used along with eEF1A purified from rat liver (as described above). HSR1 isolated from heat-shocked BHK or HeLa cells (lanes 7, 8) and HSR1-T3 (lane 10) activated HSF when added together with purified eEF1A. However, neither component alone was capable of activating HSF1 (lanes 2-6). The slight stimulating effect of isolated eEF1A (lane 2) on HSF1 activation results from the residual amount of co-purified HSR1, and could be eliminated by RNAse A treatment. In FIG. 5A, quantitation of HSF1 activation is presented as the fold increase relative to a background control. Under these conditions, about 5% of the total HSF1 was activated.
HSF1, sequence (P38532 whole entry, the tested form may be a part, one chain of several): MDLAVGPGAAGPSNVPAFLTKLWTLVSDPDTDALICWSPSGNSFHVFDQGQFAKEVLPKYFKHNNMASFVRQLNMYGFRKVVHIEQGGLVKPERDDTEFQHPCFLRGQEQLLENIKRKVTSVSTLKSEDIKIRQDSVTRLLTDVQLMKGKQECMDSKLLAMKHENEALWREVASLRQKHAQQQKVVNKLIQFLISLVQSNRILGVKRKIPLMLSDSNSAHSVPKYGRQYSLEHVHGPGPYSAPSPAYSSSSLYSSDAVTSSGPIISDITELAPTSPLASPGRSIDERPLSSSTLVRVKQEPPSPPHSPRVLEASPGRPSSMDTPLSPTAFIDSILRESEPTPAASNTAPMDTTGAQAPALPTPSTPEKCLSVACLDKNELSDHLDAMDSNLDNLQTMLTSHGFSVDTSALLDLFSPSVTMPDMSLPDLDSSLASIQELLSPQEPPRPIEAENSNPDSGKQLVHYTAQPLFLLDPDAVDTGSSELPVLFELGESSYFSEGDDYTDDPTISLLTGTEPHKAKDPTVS
In general terms: In EMSA bound probe runs differently from free probe, usually more slowly.

purified recombinant mouse HSF1 (heat shock transcription factor 1), released from GST-HSF1 by thrombin cleavage (mouse), sequence (P38532 other isoform, or with tags, fused parts or gaps limits assumed): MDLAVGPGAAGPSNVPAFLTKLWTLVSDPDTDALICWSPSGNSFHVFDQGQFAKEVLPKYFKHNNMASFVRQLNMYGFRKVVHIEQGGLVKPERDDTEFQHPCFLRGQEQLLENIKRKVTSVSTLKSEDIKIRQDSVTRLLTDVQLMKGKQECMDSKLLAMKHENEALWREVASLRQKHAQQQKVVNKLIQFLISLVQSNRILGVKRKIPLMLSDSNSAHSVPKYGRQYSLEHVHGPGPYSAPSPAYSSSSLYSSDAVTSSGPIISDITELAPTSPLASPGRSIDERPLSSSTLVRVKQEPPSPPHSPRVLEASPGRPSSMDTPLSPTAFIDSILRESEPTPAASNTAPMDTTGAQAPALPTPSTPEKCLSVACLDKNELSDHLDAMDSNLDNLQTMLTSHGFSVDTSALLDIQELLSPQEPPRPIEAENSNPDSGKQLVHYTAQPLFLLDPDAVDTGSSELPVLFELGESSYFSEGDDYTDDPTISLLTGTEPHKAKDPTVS

Take “eEF1A purified from rat liver (from UniProt P62630 2-462)”: the HSF1 activation (DNA binding to HSE, EMSA) in the reconstituted system in series [1] was 5%.

B1: HSE oligonucleotide (dsDNA)
DNA 1: GCCTCGAATGTTCGCGAAGTTTCG
DNA 2: CGAAACTTCGCGAACATTCGAGGC
With B1, the binding result in series [2] is “binds”.
